Experimental data from US20240252641A1 (TCR2 THERAPEUTICS, published 2024).

T1: CD70 on cells (CHO-CD70, JVM-3, U266, Raji, THP-1, T cells) (human, UniProt P32970 1-193)
T1 construct: whole, on cells; also called cell-surface CD70
T1 sequence (looked up): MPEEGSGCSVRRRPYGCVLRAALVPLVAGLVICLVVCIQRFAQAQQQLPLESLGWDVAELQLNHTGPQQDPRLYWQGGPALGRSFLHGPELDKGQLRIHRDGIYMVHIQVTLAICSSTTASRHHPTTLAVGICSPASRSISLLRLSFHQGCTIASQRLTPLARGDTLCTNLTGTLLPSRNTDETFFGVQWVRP

T2: human CD27 fused to human Fc domain (human, UniProt P26842 21-192, limits assumed)
T2 construct: bought reagent; also called CD27-Fc; CD27Fc
T2 sequence (looked up): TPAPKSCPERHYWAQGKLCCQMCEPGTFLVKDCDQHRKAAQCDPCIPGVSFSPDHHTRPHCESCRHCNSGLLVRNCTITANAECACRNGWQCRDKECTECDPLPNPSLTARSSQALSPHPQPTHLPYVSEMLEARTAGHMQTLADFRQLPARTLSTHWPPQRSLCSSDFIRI

B1: human CD70, recombinant, N-terminally biotinylated (residues 39-193) (ligand, UniProt P32970 39-193, looked up)
chain: QRFAQAQQQLPLESLGWDVAELQLNHTGPQQDPRLYWQGGPALGRSFLHGPELDKGQLRIHRDGIYMVHIQVTLAICSSTTASRHHPTTLAVGICSPASRSISLLRLSFHQGCTIASQRLTPLARGDTLCTNLTGTLLPSRNTDETFFGVQWVRP
modifications: N-terminal biotin
notes: range 39-193; the same entry is used there; also called biotinylated human CD70; CD70 biotin

Key:
[1] = target: T1, CD70 on cells (CHO-CD70, JVM-3, U266, …); experiment: binding to CD70-expressing CHO cells with and without CD27-Fc
Method in brief: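 Anti-CD70 antibodies and CD27-Fc were applied to CHO cells with CD70 attached to the cell surface, in four set-ups. Each was applied alone; antibody was premixed with CD27-Fc; or cells were first coated with CD27-Fc or with antibody, washed, and then given the mixture. The binding signal was then measured in each set-up.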

[2] = target: B1; experiment: BLI, biotinylated CD70 on streptavidin sensors, 400 nM analyte
Protocol: (§1) Bio-layer interferometry was used to measure the binding affinity of CD70 to CD70-targeted antibodies 41D12, R3P3H12, R3P5A1, R3aP3E8, and R3aP9D10, and human CD27 fused to human Fc domain (CD27-Fc; Acro Biosystems cat. CD7-h5254). […] Following CD70 immobilization, biosensors were immersed in Octet Buffer to remove unbound, biotinylated CD70 and to establish a flat baseline sensor signal. CD70-loaded Biosensors were then transferred to Octet buffer containing 400 nM of CD27-Fc or αCD70 antibody and association was monitored for 5 minutes at 30° C. whilst agitating at 1,000 RPM. An scFv fragment derived from humanized llama αCD70 antibody 41D12 and fused to human Fc (41D12-Fc) served as a positive control for CD70 binding and an αLysozyme single-domain camelid antibody (clone D2-L19) was used as a negative control. CD27-Fc or αCD70 antibody dissociation was initiated by transferring sensors to Octet buffer and monitored for 5 minutes. Data were analyzed using ForteBio Data Analysis Suite 9.0. The observed association (kₒₙ) and dissociation (koff) rates for the binding of single-domain antibodies to CD70 were determined using a 1:1 curve fitting model to obtain, in all cases, R²≥0.95. Values of the equilibrium dissociation constant for binding to CD70, KD, were determined from the ratio of koff and kₒₙ.

[3] = target: T2, human CD27 fused to human Fc domain; experiment: as above
Protocol: as §1

[4] = target: T1, CD70 on cells (CHO-CD70, JVM-3, U266, …); experiment: cell ELISA, about 500 nM VHH-His, anti-His-HRP
Protocol: A cell binding ELISA was carried out to determine whether the anti-CD70 VHHs could recognize the antigen on cells. ˜500 nM each VHH-his was diluted in blocking buffer (PBS+0.01% Tween20+2% non-fat dry milk) and added to wells containing 100,000-200,000 pre-blocked CHO-CD70 cells (high CD70 expression), JVM3 cells (medium-low CD70 expression), wild type CHO cells (negative control), HL60 cells (negative control). The plate was incubated for 1 hour at room temperature with agitation. After incubation cells were washed 3 times by spinning down and dumping of the supernatant followed by addition of PBST. Subsequently, secondary antibody was applied (anti-His-HRP) and the mixture incubated for 30 minutes. After 3 more washes TMB substrate was applied to the plates and the reaction was allowed to proceed for 1-5 minutes before 1M HCl was applied as a stop solution. Immediately following application of the stop solution the absorbance at 450 nm (OD₄₅₀) of each well was measured on a spectrophotometer.

binding result [1]	binding result [2]	binding result [3]	binding result [4]	Binder
binds	binds			R3aP9D10 VHH (VHH, tested as VHH-His) VHH: QVQLQESGGGLVQAGGSLRLSCAAPGFTFDAYAIGWFRQAPGKEREGVICLSPSDGSTYYADSVKGRFTISSDNAKNTVYLQMNSLKPEDTAVYYCATPSWCSLKADFGSWGQGTQVTVSS
binds	binds			R3P5A1 VHH (VHH, tested as VHH-His) VHH: QVQLQESGGGLVQPGGSLRLSCTASGSIFSATRMEWYRQAPGKQRELVAIVTSGGRTNYADSVNGRFTISRDNAKNTLYLQMNNLKPEDTAVYYCKFERYDYVNYWGRGTQVTVSS
		binds		B1
binds	binds			R3P3H12 VHH (VHH, tested as VHH-His) VHH: QVQLQESGGGLVQTGGSLRLSCTASGSIFDIVRGSWYRQAPGNQRELVAIITSGGATNYADSVAGRFTISRDSAWKALYLQMNSLKPEDTAVYFCNMESVRYRNYWGQGTQVTVSS
			binds	R3P2G8 VHH (VHH, tested as VHH-His) VHH: QVQLQESGGGLVQTGGSLRLSCTASGSIFDIARGNWYRQAPGKQRELVAIITSGGATNYADSVAGRFTISRDDAKNTVYLQMNGLKPEDTAVYFCNMESLSYRHYWGQGTQVTVSS
